According to patent US20200270346A1 (Merck Sharp & Dohme, published 2020):
Where two headings read alike, the source gives them in different places.

Columns and labels:
[1] = target: T1, human TIGIT expressed on cells (human, UniProt Q495A1 25-244); experiment: cell-based ELISA blocking assay: binding of hCD155-hFc to human TIGIT-CHO-K1 cells, antibody titrated
T1 construct: Used for human TIGIT on transfected CHO-K1 cells (cell ELISA), on hTIGIT-Jurkat cells and as endogenous TIGIT on BC4-clone 49 T cells (functional assays); also called hTIGIT; human TIGIT-CHO-K1 cells
T1 sequence: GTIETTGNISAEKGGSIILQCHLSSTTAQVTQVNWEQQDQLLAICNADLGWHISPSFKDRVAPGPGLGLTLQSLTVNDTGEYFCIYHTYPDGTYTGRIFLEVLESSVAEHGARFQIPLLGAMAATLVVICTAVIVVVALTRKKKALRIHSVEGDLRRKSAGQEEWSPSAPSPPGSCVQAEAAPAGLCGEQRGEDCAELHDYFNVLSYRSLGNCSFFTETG

[2] = target: T2, rhesus TIGIT expressed on CHO-K1 cells (rhesus monkey); experiment: cell-based ELISA, panel 'Binding to rhesus TIGIT-CHOK1 cells'
T2 construct: also called rhesus TIGIT-CHOK1 cells; Cyno/Rhesus TIGIT
T2 sequence (chain, as listed by the source): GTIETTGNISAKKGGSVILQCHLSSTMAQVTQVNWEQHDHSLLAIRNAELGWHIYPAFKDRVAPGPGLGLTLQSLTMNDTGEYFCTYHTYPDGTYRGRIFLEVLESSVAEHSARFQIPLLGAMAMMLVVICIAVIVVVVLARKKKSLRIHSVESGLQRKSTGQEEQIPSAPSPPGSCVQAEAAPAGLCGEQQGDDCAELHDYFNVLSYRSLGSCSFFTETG

[3] = target: T1, human TIGIT expressed on cells; experiment: cell-based or functional assay
human TIGIT-Fc protein [4] = target: T3, human TIGIT-Fc protein (human, UniProt Q495A1 25-141); experiment: SPR, Biacore T200, antibody captured on anti-rat IgG Fc, TIGIT-Fc in solution, 1:1 Langmuir fit
T3 construct: not shown: Fc part
T3 sequence: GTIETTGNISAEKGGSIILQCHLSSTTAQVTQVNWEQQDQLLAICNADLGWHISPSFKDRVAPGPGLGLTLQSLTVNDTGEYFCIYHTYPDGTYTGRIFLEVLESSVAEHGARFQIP
Method: (§1) The kinetic binding activity of anti-human TIGIT antibodies 14A6 and 31C6 (made as described in Example 1) and of commercial antibody MBSA43 was measured by surface plasmon resonance using a Biacore T200 system (Biacore, GE Healthcare, Piscataway, N.J.). Approximately 5000 RU of Anti-mouse IgG, GE Healthcare Catalog Number BR-1008-38, or approximately 13,000 RU of Goat Anti-Rat IgG Fc gamma, Fragment Specific, Jackson ImmunoResearch Catalog Number 112-006-071, was immobilized via amine coupling chemistry onto a Series S CM5 sensor chip, catalog number BR-1005-30. Mouse anti-human TIGIT clones, 31C6 and MBSA43, were each injected over the immobilized anti-mouse surfaces at 1 ug/mL for a capture level of 40 RU. Rat anti-human TIGIT clone 14A6 was injected over the immobilized anti-rat surfaces at 1 ug/mL for a capture level of 40 RU. HBS-EP+ buffer (BR-1006-69) was used as the running buffer with a flow rate of 30 μL/min. Varying concentrations of human TIGIT-His protein or TIGIT-Fc protein, ranging from 0.29 nM to 40 nM, at a flow rate of 45 μL/min were injected over the antibody surfaces. Following each Mouse anti-human TIGIT injection cycle for clones 31C6 and MBSA43, the Series S CM5 chip surface was regenerated using one three-minute injection of 10 mM Glycine pH 1.7 at a flow rate of […]. […]

[5] = target: T4, Human TIGIT-His (extracellular domain of hTIGIT with a histidine tag) (human, UniProt Q495A1 25-141); experiment: SPR, Biacore T200, antibody captured on anti-rat IgG Fc, TIGIT-His in solution, 1:1 Langmuir fit
T4 construct: also called hTIGIT-His; hTIGIT-HIS
T4 sequence: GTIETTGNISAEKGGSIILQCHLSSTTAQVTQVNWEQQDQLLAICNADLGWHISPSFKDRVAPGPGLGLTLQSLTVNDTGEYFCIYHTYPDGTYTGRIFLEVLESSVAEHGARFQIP
Method: as §1

[6] = target: T1, human TIGIT expressed on cells; experiment: cell-based ELISA, panel 'Binding to human TIGIT-CHO-K1 cells'
[7] = target: T1, human TIGIT expressed on cells; experiment: cell-based ELISA, panel 'Binding to human TIGIT-CHO K1 cells'
[8] = target: T2, rhesus TIGIT expressed on CHO-K1 cells; experiment: cell-based ELISA, panel 'Binding to rhesus TIGIT CHO K1 cells'
human TIGIT-Fc protein [9] = target: T3, human TIGIT-Fc protein; experiment: SPR, Biacore T200, antibody captured on anti-mouse IgG, TIGIT-Fc in solution, 1:1 Langmuir fit
Method: as §1

[10] = target: T1, human TIGIT expressed on cells; experiment: cell-based ELISA, panel 'Binding to hTIGIT-CHO'
[11] = target: T2, rhesus TIGIT expressed on CHO-K1 cells; experiment: cell-based ELISA, panel 'Binding to rhesus TIGIT-CHO'
[12] = target: T4, Human TIGIT-His (extracellular domain …); experiment: SPR, Biacore T200, antibody captured on anti-mouse IgG, TIGIT-His in solution, 1:1 Langmuir fit
Method: as §1

[13] = target: T1, human TIGIT expressed on cells; experiment: cell-based ELISA blocking assay: binding of hCD155-hFc to human TIGIT-CHO-K1 cells, antibody titrated; remark: listed apart in the source
[14] = target: T1, human TIGIT expressed on cells; experiment: cell-based or functional assay; remark: listed apart in the source

B1: 14A6 (rat anti-human TIGIT antibody, clone LB155.14A6.G2.A8) (antibody, V domains shown)
VH: EVQLQESGPGLVKPSQSLSLTCSVTGSSIASDYWGWIRKFPGNKMEWMGFITYSGSTSYNPSLKSRISITRDTSKNQFFLQLHSVTTDDTATYSCARMPSFITLASLSTWEGYFDFWGPGTMVTVSS
VL: DIQMTQSPSLLSASVGDRVTLNCKASQSIHKNLAWYQQKLGEAPKFLIYYANSLQTGIPSRFSGSGSGTDFTLTISGLQPEDVATYFCQQYYSGWTFGGGTKVELK
notes: also called 14A6 (rIgG2a/K)
IC50 (read off the curve) [1]: ~0.1 µg/mL | EC50 (read off the curve) [2]: ~0.2 µg/mL | EC50 of IL-2 rescue in hTIGIT-Jurkat / THP-1 co-culture [3]: 0.19 µg/mL | IL-2 rescue relative to MBSA43 (10 µg/ml) [3]: 82% | increase in IFNγ production, BC4-clone 49 T cells with JY-hCD155 cells [3]: ~2 fold | Kd (human TIGIT-Fc protein [4]): 3.12 pM | Kd [5]: 3.09 pM | EC50 (read off the curve) [6]: ~0.1 µg/mL

B2: 28H5 (mouse anti-human TIGIT antibody, clone TC167.28H5.H5) (antibody, mouse IgG1, V domains shown)
VH: DVQLQESGPGLVKPSQSLSLTCTVTGYSITSDYAWNWIRQFPGNKLEWMGYISNSGSASYNPSLKSRISITRDTSKNQFFLQLNSVTTEDTATYYCATLIYYDYGGAMNFWGQGTSVTVSS
VL: DIVMTQSHKFMSTSVGDRVSITCKASQGVSTTVAWYQQKPGQSPKLLIYSASYRYTGVPDRFTGSGSGTDFTFTISSVQSEDLAVYYCQHYYSTPWTFGGGTKLEIK
notes: Mouse IgG1/kappa
EC50 of IL-2 rescue in hTIGIT-Jurkat / THP-1 co-culture [3]: 0.24 µg/mL | increase in IFNγ production, BC4-clone 49 T cells with JY-hCD155 cells [3]: ~2 fold | EC50 (read off the curve) [7]: ~100 µg/mL | EC50 (read off the curve) [8]: ~0.05 µg/mL

B3: 31C6 (mouse anti-human TIGIT antibody, clone MEB125.31C6.A1.205) (antibody, mouse IgG1, V domains shown)
VH: EVQLQQSGPELVKPGSSVKMSCKASGYTFSSYVMHWVKQKPGQGLEWIGYIDPYNDGAKYNEKFKGKATLTSDKSSSTAYMELSSLTSEDSAVYYCARGGPYGWYFDVWGAGTTVTVSS
VL: DIQMTQSPASLSASVGETVTITCRASEHIYSYLSWYQQKQGKSPQLLVYNAKTLAEGVPSRFSGSGSGTQFSLKINSLQPEDFGTYYCQHHFGSPLTFGAGTTLELK
notes: Mouse IgG1/kappa; also called 31C6 (mIgG1/K); MEB125.31C6.A1.205 mIgG1
Kd (human TIGIT-Fc protein [9]): 10.9 pM | EC50 (read off the curve) [10]: ~0.03 µg/mL | EC50 (read off the curve) [11]: ~0.06 µg/mL | EC50 of IL-2 rescue in hTIGIT-Jurkat / THP-1 co-culture [3]: 0.14 µg/mL | EC50 of IL-2 rescue in hTIGIT-Jurkat / hCD155-JY co-culture [3]: 0.73 µg/mL | IL-2 rescue relative to MBSA43 (10 µg/ml) [3]: 118% | increase in IFNγ production, BC4-clone 49 T cells with JY-hCD155 cells [3]: ~2 fold | Kd [12]: 34.4 pM | IC50 (read off the curve) [13]: ~0.9 µg/mL

B4: Mouse human chimera MEB125.31C6.A1.205 IgG1 (antibody, V domains shown)
VH: EVQLQQSGPELVKPGSSVKMSCKASGYTFSSYVMHWVKQKPGQGLEWIGYIDPYNDGAKYNEKFKGKATLTSDKSSSTAYMELSSLTSEDSAVYYCARGGPYGWYFDVWGAGTTVTVSS
VL: DIQMTQSPASLSASVGETVTITCRASEHIYSYLSWYQQKQGKSPQLLVYNAKTLAEGVPSRFSGSGSGTQFSLKINSLQPEDFGTYYCQHHFGSPLTFGAGTTLELK
EC50 of IL-2 rescue in hTIGIT-Jurkat / hCD155-JY co-culture [3]: 0.91 µg/mL

B5: MEB125.31C6.A1.205 VH4/VL1 (antibody, human IgG1, V domains shown)
VH: EVQLVQSGAEVKKPGASVKVSCKASGYTFSSYVMHWVRQAPGQGLEWIGYIDPYNDGAKYAQKFQGRVTLTSDKSTSTVYMELSSLRSEDTAVYYCARGGPYGWYFDVWGQGTTVTVSS
VL: DIQMTQSPSSLSASVGDRVTITCRASEHIYSYLSWYQQKPGKAPKLLIYNAKTLAEGVPSRFSGSGSGTDFTLTISSLQPEDFATYYCQHHFGSPLTFGQGTRLEIK
EC50 of IL-2 rescue in hTIGIT-Jurkat / hCD155-JY co-culture [14]: 0.62 µg/mL

B6: MEB125.31C6.A1.205 VH5/VL4 (antibody, human IgG1, V domains shown)
VH: EVQLVQSGAEVKKPGSSVKVSCKASGYTFSSYVMHWVRQAPGQGLEWIGYIDPYNDGAKYAQKFQGRVTLTSDKSTSTAYMELSSLRSEDTAVYYCARGGPYGWYFDVWGQGTTVTVSS
VL: DIQMTQSPSSLSASVGDRVTITCRASEHIYSYLSWYQQKPGKVPKLLIYNAKTLAEGVPSRFSGSGSGTQFTLTISSLQPEDVATYYCQHHFGSPLTFGQGTRLEIK
EC50 of IL-2 rescue in hTIGIT-Jurkat / hCD155-JY co-culture [14]: 1.2 µg/mL

B7: MEB125.31C6.A1.205 VH5/VL3 (antibody, human IgG1, V domains shown)
VH: EVQLVQSGAEVKKPGSSVKVSCKASGYTFSSYVMHWVRQAPGQGLEWIGYIDPYNDGAKYAQKFQGRVTLTSDKSTSTAYMELSSLRSEDTAVYYCARGGPYGWYFDVWGQGTTVTVSS
VL: DIQMTQSPSSLSASVGDRVTITCRASEHIYSYLSWYQQKPGKVPKLLIYNAKTLAEGVPSRFSGSGSGTDFTLTISSLQPEDVATYYCQHHFGSPLTFGQGTRLEIK
EC50 of IL-2 rescue in hTIGIT-Jurkat / hCD155-JY co-culture [14]: 1.2 µg/mL
